Measurements as given in publication PMC5613346 (Biochemistry and Biophysics Reports, 2016).

Columns and labels:
[1] = biological target: T1, mouse wtTNF (mouse), P06804; experiment: SEC; conditions: remark: other sources report otherwise
T1 chain: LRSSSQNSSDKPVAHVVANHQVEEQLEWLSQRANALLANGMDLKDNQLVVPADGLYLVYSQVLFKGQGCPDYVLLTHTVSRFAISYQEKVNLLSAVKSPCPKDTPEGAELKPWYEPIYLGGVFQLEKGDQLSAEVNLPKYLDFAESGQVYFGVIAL

mTNFR1 Fc chimera = biological target: T2, mTNFR1 Fc chimera (mouse, UniProt P25118); experiment: SPR
T2 sequence: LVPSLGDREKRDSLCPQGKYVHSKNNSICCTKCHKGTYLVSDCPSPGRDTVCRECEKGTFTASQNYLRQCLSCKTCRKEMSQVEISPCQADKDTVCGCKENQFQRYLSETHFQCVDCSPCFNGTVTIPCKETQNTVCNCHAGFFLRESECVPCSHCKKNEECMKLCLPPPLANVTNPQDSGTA

mTNFR2 Fc chimera = biological target: T3, mTNFR2 Fc chimera (mouse, UniProt P25119); experiment: SPR
T3 sequence: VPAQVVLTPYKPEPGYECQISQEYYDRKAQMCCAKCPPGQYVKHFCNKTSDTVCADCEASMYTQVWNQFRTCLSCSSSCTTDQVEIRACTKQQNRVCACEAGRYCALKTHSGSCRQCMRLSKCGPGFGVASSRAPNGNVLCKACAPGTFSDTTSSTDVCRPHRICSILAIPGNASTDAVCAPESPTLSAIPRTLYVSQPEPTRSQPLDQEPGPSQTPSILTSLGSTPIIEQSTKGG

B1: mouse wtTNF (ligand)
chain: T1 chain
With B1 the stoichiometry N [1] was 3, the Kd (mTNFR1 Fc chimera) was 5.84 nM and the koff (mTNFR1 Fc chimera) was 0.000969 s⁻¹. The kon (mTNFR1 Fc chimera) was 166000 M⁻¹ s⁻¹, the Kd (mTNFR2 Fc chimera) was 10.4 nM and the koff (mTNFR2 Fc chimera) was 0.0056 s⁻¹. For the same binder, the kon (mTNFR2 Fc chimera) was 537000 M⁻¹ s⁻¹.
